# Test results from the DeepSol protein solubility set.
# Assay: soluble on expression in E. coli; label from the status in PepcDB or PDB records
row,Sequence,soluble on expression in E. coli
1,MPTNCAAAGCATTYNKHINISFHRFPLDPKRRKEWVRLVRRKNFVPGKHTFLCSKHFEASCFDLTGQTRRLKMDAVPTIFDFCTHIKSMKLKSRNLLKKNNSCSPAGPSNLKSNISSQQVLLEHSYAFRNPMEAKKRIIKLEKEIASLRRKMKTCLQKERRATRRWIKATCLVKNLEANSVLPKGTSEHMLPTALSSLPLEDFKILEQDQQDKTLLSLNLKQTKSTFI,not soluble
2,MPTPTTLSEWQLLAVLSKANLVQYYDVFIAQGGDDINQIMACEEREFLEIMNLVGMLPKPLHVRRMQRALAEYSQDQTAFNLAALQQIGPPPPLNYTPAGTDPMALLLPGIAAATSPKFPSLRFLSQLSSVAEKVSTPSEAADTSSSSPSLNLNTTSSNSVPLAFKFSTPLLESLASDQQSSSTSSVRSVLPSTSSNTSHPELPAGILPATTTNVSAAVPPPSSRATANVFSGNSIGLNFSGAASVTRHLVVPPSSTSIQQPSTSFGRSSSITGQEKEGSSSPFLGVGYSQPYGNDFVSLGDFDPNNPSLTENPTLSTAQISRLAECALAASKNLPPLPPRLVQNKKRVSKEVIELLKCSPATPSMIHAFRKYSAIYGRFDTKRKPHKVLTLHETTVNEAAAQLCLLVPSLLTRRDELFPLARQIVKDAGYNYAKSRKRPCDPADLHSPISSPGNSPPPQESEFDEQPSSSSGAFKEEERPPIPPEAWAAIIEKMKGELPES,not soluble
3,MPVKIPDHLPAAGILESENIFVMSETRAANQDIRPMKVLILNLMPNKIETETQLLRLLGNTPLQVDVDLLRIHDKESKHTSIDHMNTFYRDFEDVRHKNYDGLIITGAPLGQIDFEDVTYWDHIREIIDWSQQHVTSVLFLCWAAHAGLYHLYGLNRKILEQKRSGVFVHRRTCQHFPLLRGFDDEFFAPHSRFAEMDVEEIRQHPQLQLLAESDEAGAYLVLSRNNRNLFVMGHPEYQKSTLNDEYHRDLAQSLNPNVPQNYYRNDDPKADAIARWHSHGSLLVSNWLNYYVYQLTPYDLSDMTAMTPWESQMAGDPLEHHHHHH,soluble
4,MPVLALRLTALAALVISVSGCVMEAYGSRARSDAQSWIGLPIQDVIKRFGEPERVTGDAARQKYVWKEYENYSHDYDYTYYEQGHGNTPNSSVLNQKTGTANQSGYYTCIYEFFADASGRVVDATARGECR,not soluble
5,MPVLHNRISNDELKAKMLAESEPRTTISFYKYFTIASPQQTRDALYQVFTALDVFGRVYLAHEGINAQISVPQSKLETFRQQLYTFDPALDGVRLNIALEDDGKSFWVLRMKVRDRIVADGIDDPTFDASNVGDYLKAADVNAMLDDPDAVFIDMRNHYEYEVGHFENALEIPADTFREQLPKAVEMLREHADKKIVMYCTGGIRCEKASAWMKHNGFNKVWHIEGGIIEYARRARAQGLPVRFIGKNFVFDERMGERISDEVIAHCHQCGASCDSHTNCKNDGCHLLFIQCPQCASKFNGCCSEQCCEELALPEEEQRRRRAGRENGNKIFNKSRGRLNSKLSIPDPAEAAALEHHHHHH,soluble
6,MPVTNMAELDAMIARVKKAQEEFATYSQEQVDKIFRAASLAANQARIPLAQQAVEESGMGIVEDKVIKNHFASEFIYNKYKDEQTCGILEEDDNLGTMTIAEPVGIICGIVPTTNPTSTAIFKSLISLKTRNGIIFSPHPRAKNSTNDAAKLVLDAAVAAGAPKDIIGWIDQPSVELSNALMKHDDIALILATGGPGMVKAAYSSGKPAIGVGAGNVPVVIDETADIKRAVASVLMSKTFDNGVVCASEQAVIVVDEVYDEVKERFASHKAHVLSKTDADKVRKVLLIDGALNAKIVGQPATAIAEMAGVKVPADTKVLIGEGLGKVSYDDAFAHEKLSPTLGMFRADNFEDAVAQAVTMVEIGGIGHTSGLYTNQDVNADRIRYFGDKMKTARILINIPTTHGGIGDLYNFNVAPSLTLGCGSWGGNSISENVGPKHLINKKTVAKRAENM,soluble
7,MPVTQEEIIAGIAEIIEEVTGIEPSEITPEKSFVDDLDIDSLSMVEIAVQTEDKYGVKIPDEDLAGLRTVGDVVAYIQKLEEENPEAAQALRAKIESENPDAVANVQARLEAESK,soluble
8,MQAKEEKEFTLQERRCLIVWVYTLKPLKQLRRYGLIHYVSRKMKYVVIYMNEENIESNMEKINQLHFVRSVDKSYRPDVEMNFAEKIGTKAAYQEQEDDGYVVEELSTEIRLAENV,not soluble
9,MQAKIKNKRVLVKFSGEALAGDNQFGIDIHVLDHIAKEIKSLVENDIEVGIVIGGGNIIRGVSAAQGGIIRRTSGDYMGMLATVINAVAMQEALEHIGLDTRVQSAIEIKEICESYIYRKAIRHLEKGRVVIFGAGTGNPFFTTDTAATLRAIEIGSDLIIKATKVDGIYDKDPNKFKDAKKLDTLSYNDALIGDIEVMDDTAISLAKDNKLPIVVCNMFKKGNLLQVIKHQQGVFSMVKLEHHHHHH,not soluble
10,MQASQFSAQVLDWYDKYGRKTLPWQIDKTPYKVWLSEVMLQQTQVATVIPYFERFMARFPTVTDLANAPLDEVLHLWTGLGYYARARNLHKAAQQVATLHGGKFPETFEEVAALPGVGRSTAGAILSLSLGKHFPILDGNVARVLARCYAVSGWPGKKEVENKLWSLSEQVTPAVGVERFNQAMMDLGAMICTRSKPKCSLCPLQNGCIAAANNSWALYPGKKPK,soluble
11,MQAYRGTGKTSQLISQKKPISILILGVDQGIEGRHDRGNSDTMILATMNPEKKEATMTSIPRDLLADIKGDGRGEGKYYMFRANSAYQVGGSKGATRTVKALLNTPVNYYMEVNMKALESMVEALGGVDVNVPFTFTYHTHFRKGKQHLNGKEALDYVRMRKEDPKGDYGRQMRQRQVINDIVRKGMSVNSITNYRKILKVFAKYVKTNLTFDDMLSIAMNYRGCTQNIKSGYIQGHNVWIGAAAMQVASTKELQRVSDLVRSSLGLKQEKLEHHHHHH,soluble
12,MQAYTYTIIQRLDNLNQQRIDRALALMDSQSQQVFHLIPALLNYNHPVIPGYYDADVPFGVHGLELNPIQQQFIDDIQLAIGQPLKTAEKPAILGLYTMGSTSSIGQSTSSDLDIWVCISPEMDCDERELLTNKCLLITDWAQSQGVEANFFLMDEERFRSNHSEEMTGDNCGSSQHLLLLDEFYRSAVRIAGQRLLWQIVPPEMEECYDEYVSQLCSDGYIDCSEWIDFGKLNRIPAEEYFGSNLWQLYKSIDSPYKSVLKAILLEAYSWEYPHTQLLSIDTKRRFFAHEPDLYGMDAYYLMLEKVTRYLERIQDDTRLDLVRRCFYLKTHEKLSREPDVGSVAWRREALSDMIAKWNWDDSVVAELDDRRNWKVEQVKVVHHALLDALMQSYRNLIQFARRNDITSAISPQDISILARKLYAAFEVLPGKVTLLNPQISPDLHEADLSFIEVKEGGVNKSGWYLYKQPLIAHRILGQPCLEHHEYLSKLVSWAFFNGLITESTRLHAVVREAQLDIDKFYQMVSDLRNTFALRKRRPTMQALASPCEISQLAMFINFENDPTSELSGRSLKVDVKNTDIFSFGPEHKNLVGSVDLVYRNSWHEVRTLHFKGETAMLDALKTILGKMHQDALPPESVDVFCYAKNMRGVMRNMVYQLLAECIDLRLKPVEQEKRRRFKAMRLGNQTYGLFFERRGVSVQKLENSIDFYRSISTNKLKGSPLLMLDREQEYQLPEAVDGFASEGLVQFFFEDNEDGFNIYVLDESNQVEVYHQFSGSKDEMIASVNSFYTSVKDDSRVASKFINFNLPQYYQIIHPEEGNAYIIPYRNDGCSP,not soluble
13,MQCCVQLVPFWDTSGVSTMFDYQVSKHPHFDEACRAFALRHNLVQLAERAGMNVQILRNKLNPAQPHLLTAPEIWLLTDLTEDSTLVDGFLAQIHCLPCVPINEVAKEKLPHYVMSATAEIGRVAAGAVSGDVKTSAGRRDAISSINSVTRLMALAAVSLQARLQANPAMASAVDTVTGLGASFGLL,not soluble
14,MQDIHFRRHYVRHLPKEVSQNDIIKALASPLINDGMVVSDFADHVITREQNFPTGLPVEPVGVAIPHTDHKYVRQNAISVGILAEPVNFEDMGGEPDPVPVRVVFMLALGESNKQLNVLGWIMDVIQDEDFMQQLLVMNDDEIYQSIYTRISERGEV,soluble
15,MQDSKIPPFSEAKRMKIPTPKQPLTQLPPRIGKKVSNRSKSNQVHAISHQLEMSPNSDSSPGNEYRALRRKYLLLEEDSFALERELKEAEDEVKALEDEKLELLDKLVVMEGLVDP,soluble
16,MQEIGILENLQKSLALKEGMLSYEMLGKSLSYNPYLPRVIPQTKDCVFVTPDEVLEKLLKENTHTDCVIVNFKGLYEIGAPSVFNLEVLGLLRRHASSLIVHQDLFISHYQLLESLVQGSDGVVLDEELLKEDLKGMVEFSWRLGLSVFVETHKQDYTHLKDLGVLGVLEKVPHSQNQKRIVFLD,not soluble
17,MQEIIFIDEGSFPTPEGVTREWVQGAAENRDEDEKLFSIIREAFQIKIDAGVQVPTYPQFRDMIGQFFDIIKDEKNCHEPYVLKEERATILELEAIDEVAKQYKIETGKTLEVRVCIAGPTDMYYQAFGATAFVDVYDILAKDIEKFIKQAFKTAKNFKIKVIALDEIGLGLNDKIQFSDDEIISALTVASTFARQQGADVEIHVYSPLKYELICETPINVIGFEYAGNPSYIDLLDRKVLEDSDAYAGVGISRTDIFSLISIVNEKYGINAWKDKEYMQKIVTELETPDIIKKRLETAYSVLGDRIKYANPDCGLAFWPDQELAFRLLENTAKAVNEFNAEGIINKAAALEHHHHHH,not soluble
18,MQEIIFIDGGSLPTPEGFTREWVKAAAESRTEDQKLFSLVSDAFQRKIDAGVHVPTYPQFRDMIGQFLDIIRDEKNCYEPYVLKEENAKILELEIIDEVAKQYRERTGKTLEVRVCVAGPTDLYLQAFGATAFSDAYHIMALNIENFIKQAFKAAKNFKIKVIALDEPSLGMNDKIQFSDLDIVSALTLASTYARKQGADVEIHLHSPLKYKLICETPINVMGFEYAATPSYIDLMDKKILEDSNTYIRLGVSRTDISSLIGMVNETYGVNAWKEKEYMQKIVTELETPDIIQKRLEKACSILGDRIKYASPDCGLAFWPDQELAFRLLENTAKGINAFNAEMKDLLEHHHHHH,not soluble
19,MQEQIQEYAKRLKLSWIRENYREVEAANTEEYLLKLFEKEIEQREERKINLLFKAATLPNVSGKPFDWKDIQLGQGLSQQSLLDGEFIESKENMVFYGGVGAGKTYLSTLIGMNAIQKYGKRVKFYTIASLANELLEANDKGNLNKLFKKIEKLDLLILDELGYIPLHKHGAELLFQVISLCYEKRSIIITTNLQFGQWNHVFGDPILTEAVVDRLIHHSHLVIFGGDSNRMKKSFLLNNMLEHHHHHH,soluble
20,MQFNPGFSSLAALLADPGRAQMIWALMDGSARPASELALLAGVSPSSASGHLGRLVEGGVLSLEARGRNRFYRLAGPEVGQAVEALASASLALQPQRRSLPPSHGTPSALREARTCYDHLAGELAVGVFARMLDAGWIEQEGRTLRLSATGEAGLAGLGIDLAEVRRRRRQFACACPDWSERKPHLGGALGAALLEACLRQGWLRPQDGSRALQVSSKGRAGLRGLAERTAG,not soluble
21,MQGRVKWFNAEKGFGFIEREDGDDVFVHFSAIQQDGYKSLEEGQQVEFDIVDGARGPQAANVVKL,not soluble
